How the values were obtained:
human plasmin = human plasmin (UniProt P00747); assay: whole-bacteria Pln binding; bound Pln activity measured with chromogenic substrate (VALY); details: +Pln: S. suis is incubated with Pln; parent: est. 100; read off a plot
human plasminogen = assay: whole-bacteria Plg binding; bound Plg converted to Pln with tPA, Pln activity measured with chromogenic substrate (VALY); details: +Plg/+tPA: S. suis is incubated with Plg and tPA; parent: est. 100; read off a plot

UniProt P00747, sequence (P00747 581-810, chain 1 of 2): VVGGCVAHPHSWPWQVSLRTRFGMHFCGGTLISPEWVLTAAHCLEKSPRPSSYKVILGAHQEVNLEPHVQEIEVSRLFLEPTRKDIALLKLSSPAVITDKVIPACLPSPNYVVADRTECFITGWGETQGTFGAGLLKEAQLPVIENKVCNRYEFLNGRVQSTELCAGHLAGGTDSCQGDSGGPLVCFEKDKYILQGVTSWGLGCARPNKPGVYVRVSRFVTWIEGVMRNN
UniProt P00747, sequence (P00747 581-810, chain 2 of 2): as the sequence (P00747 581-810, chain 1 of 2) above

Substance | percent of parent (% of wild-type) (human plasmin) | percent of parent (% of wild-type) (human plasminogen)
Streptococcus suis P1/7 enolase, wild type, on intact bacteria (from UniProt A4W2T1) K434A; K435A | 46 | 55
Streptococcus suis P1/7 enolase, wild type, on intact bacteria (from UniProt A4W2T1) K261A | 56 | 58
Streptococcus suis P1/7 enolase, wild type, on intact bacteria (from UniProt A4W2T1) K252A; E253G; K255A | 63 | 55
Streptococcus suis P1/7 enolase, wild type, on intact bacteria (from UniProt A4W2T1) K252A; K261A | 50 | 57

From paper PMC10919400
